Measurements reported in article PMC3000319 (PLoS ONE, 2010).

Biological target: the molecule itself
Experiment: AUC

B1: recombinant ovine PrP (25–233) (natural protein)
chain: not shown
stoichiometry N: 2
